For experiment [1], the target named is isolated CARF domain (1–169 aa) of StCsm6 (Streptococcus thermophilus DGCC8004). As to the kind of experiment: SEC.
Experiment [2] deals with isolated HEPN domain (172–428 aa) of StCsm6 (Streptococcus thermophilus DGCC8004). Put plainly: SEC.

In experiment [1], “isolated CARF domain (1–169 aa) of StCsm6 (domain or fragment)” registered a stoichiometry N of 2.
For “isolated HEPN domain (172–428 aa) of StCsm6 (domain or fragment)”, the stoichiometry N in experiment [2] amounted to 2.
